Where “and” joins values, the source holds several entries; their conditions need not be identical. Identical values can stand only once.
B1: FliN (S. enterica serovar typhimurium), C-ring switch subunit (natural protein, UniProt P26419 1-137, looked up)
chain: MSDMNNPSDENTGALDDLWADALNEQKATTTKSAADAVFQQLGGGDVSGAMQDIDLIMDIPVKLTVELGRTRMTIKELLRLTQGSVVALDGLAGEPLDILINGYLIAQGEVVVVADKYGVRITDIITPSERMRRLSR
notes: FliN, S. enterica serovar typhimurium, expressed from the fliN gene on plasmid pKLR3; residues 45/59/63-137 of the three non-equivalent copies modelled in the C-ring; no tag is told; also called FliNC; FliN1; source: E. coli BL21-Gold, coexpressed from plasmid pKLR3; MSC-ring particles partially purified by differential membrane extraction
B2: FliG ΔPAA (S. enterica serovar typhimurium), extreme CW-biased mutant (natural protein)
chain: MSNLSGTDKSVILLMTIGEDRAAEVFKHLSTREVQALSTAMANVRQISNKQLTDVLSEFEQEAEQFAALNINANEYLRSVLVKALGEERASSLLEDILETRDTTSGIETLNFMEPQSAADLIRDEHPQIIATILVHLKRSQAADILALFDERLRHDVMLRIATFGGVQLAELTEVLNGLLDGQNLKRSKMGGVRTAAEIINLMKTQQEEAVITAVREFDGELAQKIIDEMFLFENLVDVDDRSIQRLLQEVDSESLLIALKGAEPPLREKFLRNMSQRAADILRDDLANRGPVRLSQVENEQKAILLIVRRLAETGEMVIGSGEDTYV
notes: FliG, S. enterica serovar typhimurium, with the Pro-Ala-Ala (PAA) motif FliG 169-171 deleted; also called switch_(ΔPAA); CW-locked; source: switch particles containing the FliG ΔPAA mutation; expression and purification as told for the FliFGMN subunits (E. coli BL21-Gold, differential membrane extraction)
B3: FliG (S. enterica serovar typhimurium), wild type, C-ring switch subunit (natural protein, UniProt P0A1J9 1-331, looked up)
chain: MSNLSGTDKSVILLMTIGEDRAAEVFKHLSTREVQALSTAMANVRQISNKQLTDVLSEFEQEAEQFAALNINANEYLRSVLVKALGEERASSLLEDILETRDTTSGIETLNFMEPQSAADLIRDEHPQIIATILVHLKRSQAADILALFDERLRHDVMLRIATFGGVQPAALAELTEVLNGLLDGQNLKRSKMGGVRTAAEIINLMKTQQEEAVITAVREFDGELAQKIIDEMFLFENLVDVDDRSIQRLLQEVDSESLLIALKGAEPPLREKFLRNMSQRAADILRDDLANRGPVRLSQVENEQKAILLIVRRLAETGEMVIGSGEDTYV
notes: FliG, S. enterica serovar typhimurium, expressed from the fliG gene on plasmid pKLR3; residues 1-331 modelled in the C-ring; no tag is told; also called FliGD1; FliGD2; source: E. coli BL21-Gold, coexpressed from plasmid pKLR3; MSC-ring particles partially purified by differential membrane extraction
B4: FliF (S. enterica serovar typhimurium), subunit of the MS-ring whose C-terminus (FliFC) lies in the C-ring (natural protein)
chain: MSATASTATQPKPLEWLNRLRANPRIPLIVAGSAAVAIVVAMVLWAKTPDYRTLFSNLSDQDGGAIVAQLTQMNIPYRFANGSGAIEVPADKVHELRLRLAQQGLPKGGAVGFELLDQEKFGISQFSEQVNYQRALEGELARTIETLGPVKSARVHLAMPKPSLFVREQKSPSASVTVTLEPGRALDEGQISAVVHLVSSAVAGLPPGNVTLVDQSGHLLTQSNTSGRDLNDAQLKFANDVESRIQRRIEAILSPIVGNGNVHAQVTAQLDFANKEQTEEHYSPNGDASKATLRSRQLNISEQVGAGYPGGVPGALSNQPAPPNEAPIATPPTNQQNAQNTPQTSTSTNSNSAGPRSTQRNETSNYEVDRTIRHTKMNVGDIERLSVAVVVNYKTLADGKPLPLTADQMKQIEDLTREAMGFSDKRGDTLNVVNSPFSAVDNTGGELPFWQQQSFIDQLLAAGRWLLVLVVAWILWRKAVRPQLTRRVEEAKAAQEQAQVRQETEEAVEVRLSKDEQLQQRRANQRLGAEVMSQRIREMSDNDPRVVALVIRQWMSNDHE
notes: FliF, S. enterica serovar typhimurium, expressed from the fliF gene on plasmid pKLR3; residues 50-428 modelled in the MS-ring and 514-560 (FliFC) in the C-ring; no tag is told; also called MS-ring subunit; source: E. coli BL21-Gold, coexpressed from plasmid pKLR3; MSC-ring particles partially purified by differential membrane extraction
B5: FliM (S. enterica serovar typhimurium), C-ring switch subunit (natural protein, UniProt P26418 1-334, looked up)
chain: MGDSILSQAEIDALLNGDSDTKDEPTPGIASDSDIRPYDPNTQRRVVRERLQALEIINERFARQFRMGLFNLLRRSPDITVGAIRIQPYHEFARNLPVPTNLNLIHLKPLRGTGLVVFSPSLVFIAVDNLFGGDGRFPTKVEGREFTHTEQRVINRMLKLALEGYSDAWKAINPLEVEYVRSEMQVKFTNITTSPNDIVVNTPFHVEIGNLTGEFNICLPFSMIEPLRELLVNPPLENSRHEDQNWRDNLVRQVQHSELELVANFADIPLRLSQILKLKPGDVLPIEKPDRIIAHVDGVPVLTSQYGTVNGQYALRVEHLINPILNSLNEEQPK
notes: FliM, S. enterica serovar typhimurium, expressed from the fliM gene on plasmid pKLR3; FliML1 31-50, FliMmid 51-230, FliML2 231-256 and FliMC 257-330 described in the C-ring; no tag is told; also called FliML1; FliMmid; source: E. coli BL21-Gold, coexpressed from plasmid pKLR3; MSC-ring particles partially purified by differential membrane extraction

Assays:
[1] = target: B5; test: cryo-EM structure; wild-type MSC-ring particles (CCW pose); MS-ring or C-ring removed by particle subtraction; C-ring 34-mer at 4.0 Å (33-, 35-, 36-mer classes too), MS-ring 33-mer at 3.4 Å; settings: both partners purified
[2] = target: the molecule itself; test: cryo-EM structure; MSC-ring particles with FliG ΔPAA (CW pose); C34 symmetry applied, symmetry expansion and local refinement of three staves; 4.6 Å
[3] = target: B4; test: as above; settings: both partners purified
[4] = target: B4; test: cryo-EM structure; wild-type MSC-ring particles (CCW pose); MS-ring or C-ring removed by particle subtraction; C-ring 34-mer at 4.0 Å (33-, 35-, 36-mer classes too), MS-ring 33-mer at 3.4 Å; settings: both partners purified
[5] = target: the molecule itself; test: as above

Binder: B1
- stoichiometry N [1]: 3 FliN per FliM
- binding result [2]: binds

Binder: B2
- binding result [3]: binds
- binding result [2]: binds

Binder: B3
- binding result [4]: binds
- stoichiometry N [5]: 34 and 33 and 35 and 36

Binder: B4
- stoichiometry N [5]: 33

Binder: B5
- stoichiometry N [5]: 34
